The source of these data is PMC12412103, “An Amyloidogenic Fragment of the Spike Protein from SARS-CoV‑2 Virus Stimulates the Aggregation and Toxicity of Parkinson’s Disease Protein Alpha-Synuclein” (ACS Chemical Neuroscience, 2025).

Data set [1] concerns the molecule itself. The experiment in a line: dynamic light scattering.
Data set [2] addresses α-synuclein (αSyn), wild type (human, UniProt P37840 1-140). The experiment in a line: ITC. Particulars: both partners purified.

Several values for one entry are separate records, joined by “and”; a condition that tells them apart may be missing. Equal values may be shown once.

B1: Spike 194–203 (S194), fibrillogenic fragment of the Spike protein of SARS-CoV-2 (peptide)
peptide: FKNIDGYFKI
notes: also called mS194 (monomer); fS194 (fibrils)
Take B1: the binding result in data set [1] was “binds”. Moreover, the dH in data set [2] was -200 kcal/mol and -150 kcal/mol.
